Numbering of substitutions follows the chain as printed.
T1: TRBP dsRBD12 Cy3B-CF660R (doubly labeled) (human, UniProt Q15633 16-158+=T+159-227, C73A;M100C;C196V;internal_change)
T1 sequence: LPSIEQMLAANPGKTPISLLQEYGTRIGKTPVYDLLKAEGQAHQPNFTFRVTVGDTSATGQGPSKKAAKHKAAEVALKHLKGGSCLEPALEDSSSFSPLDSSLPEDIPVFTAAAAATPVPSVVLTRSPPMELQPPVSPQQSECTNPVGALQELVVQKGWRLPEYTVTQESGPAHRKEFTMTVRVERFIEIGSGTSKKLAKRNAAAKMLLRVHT

T2: TRBP dsRBD12 M100C/C158S (human, UniProt Q15633 16-158+=T+159-227, C73A;M100C;C158S;C196V;internal_change)
T2 sequence: T1 sequence with C143S

T3: TRBP dsRBD12 M100S (human, UniProt Q15633 16-158+=T+159-227, C73A;M100S;C196V;internal_change)
T3 sequence: T1 sequence with C85S

B1: EL86 siRNA (dsRNA)
RNA 1: UUAAUUAUCUAUUCCGUACUU
RNA 2: GUACGGAAUAGAUAAUUAAUU
B2: EL86 siRNA, Cy3B-labeled (dsRNA)
RNA 1: UUAAUUAUCUAUUCCGUACUU
RNA 2: GUACGGAAUAGAUAAUUAAUU
modifications: 3' biotin on EL86up; 3' amino modifier on EL86down

What was measured:
[1] = biological target: T1, TRBP dsRBD12 Cy3B-CF660R (doubly …); test: single-molecule FRET titration; 125 mM KCl, 20 mM Tris-HCl pH 7.4, 295 K; smFRET: 20 mM Tris-HCl pH 7.4, 125 mM KCl (affinity) or 25 mM KCl (orientation), 15 nM BSA, 0.001% Tween-20, 295 K; NMR buffer not in material; conditions: protein: recombinant; tags: Cy3B and CF660R at C100 and C158; pET47b(+)-based vector; 19 bp, 3' overhang 2 nt (UU) on both strands
TRBP dsRBD12 M100C/C158S = biological target: T2, TRBP dsRBD12 M100C/C158S; test: single-molecule FRET; 25 mM KCl; two configurations; smFRET: 20 mM Tris-HCl pH 7.4, 125 mM KCl (affinity) or 25 mM KCl (orientation), 15 nM BSA, 0.001% Tween-20, 295 K; NMR buffer not in material; conditions: protein: recombinant; tags: CF660R at C100; label: Cy3B at 3' end of EL86down; 19 bp, 3' overhang 2 nt (UU) on both strands
TRBP dsRBD12 M100S = biological target: T3, TRBP dsRBD12 M100S; test: as above; conditions: protein: recombinant; tags: CF660R at C158; label: Cy3B at 3' end of EL86down; 19 bp, 3' overhang 2 nt (UU) on both strands

Binder | Kd [1] [nM] | binding result (TRBP dsRBD12 M100C/C158S) | binding result (TRBP dsRBD12 M100S)
B1 | 0.21 ± 0.03 |  | 
B2 |  | binds | binds

Reference: article PMC5852647, “Structural basis of siRNA recognition by TRBP double‐stranded RNA binding domains”
